The target in series [1] is T1, UM-Pif1 (unmodified Pif1) (Saccharomyces cerevisiae, UniProt P07271 1-859).
T1 sequence: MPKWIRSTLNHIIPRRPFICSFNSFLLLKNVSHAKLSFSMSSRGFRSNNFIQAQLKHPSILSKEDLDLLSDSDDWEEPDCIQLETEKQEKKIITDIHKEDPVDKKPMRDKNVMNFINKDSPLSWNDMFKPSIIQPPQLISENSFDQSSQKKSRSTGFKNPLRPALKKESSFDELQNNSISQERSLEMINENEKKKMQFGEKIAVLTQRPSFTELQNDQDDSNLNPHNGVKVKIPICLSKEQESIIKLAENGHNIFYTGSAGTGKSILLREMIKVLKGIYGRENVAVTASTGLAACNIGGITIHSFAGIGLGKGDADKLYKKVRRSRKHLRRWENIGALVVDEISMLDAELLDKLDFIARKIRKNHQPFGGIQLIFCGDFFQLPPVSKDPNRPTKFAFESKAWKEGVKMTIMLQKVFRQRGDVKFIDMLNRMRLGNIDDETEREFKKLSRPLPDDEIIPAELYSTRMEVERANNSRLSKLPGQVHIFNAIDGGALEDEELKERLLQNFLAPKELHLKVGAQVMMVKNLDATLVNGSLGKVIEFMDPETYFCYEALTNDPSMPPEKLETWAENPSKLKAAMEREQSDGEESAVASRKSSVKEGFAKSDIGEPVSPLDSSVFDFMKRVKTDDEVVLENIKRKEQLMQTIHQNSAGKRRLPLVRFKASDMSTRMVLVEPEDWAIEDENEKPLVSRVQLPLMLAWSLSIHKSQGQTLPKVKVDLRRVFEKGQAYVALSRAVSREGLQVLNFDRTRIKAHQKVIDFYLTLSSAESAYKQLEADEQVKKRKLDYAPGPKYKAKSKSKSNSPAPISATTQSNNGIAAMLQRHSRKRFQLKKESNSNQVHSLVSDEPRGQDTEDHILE
Nature of the series: BLI. (In general: In BLI a coated tip is dipped into the sample, and binding shifts an interference pattern.)

Series [2] has as its target T2, UM-Pif1ΔN (unmodified) (Saccharomyces cerevisiae, UniProt P07271 234-859, del1-233).
T2 sequence: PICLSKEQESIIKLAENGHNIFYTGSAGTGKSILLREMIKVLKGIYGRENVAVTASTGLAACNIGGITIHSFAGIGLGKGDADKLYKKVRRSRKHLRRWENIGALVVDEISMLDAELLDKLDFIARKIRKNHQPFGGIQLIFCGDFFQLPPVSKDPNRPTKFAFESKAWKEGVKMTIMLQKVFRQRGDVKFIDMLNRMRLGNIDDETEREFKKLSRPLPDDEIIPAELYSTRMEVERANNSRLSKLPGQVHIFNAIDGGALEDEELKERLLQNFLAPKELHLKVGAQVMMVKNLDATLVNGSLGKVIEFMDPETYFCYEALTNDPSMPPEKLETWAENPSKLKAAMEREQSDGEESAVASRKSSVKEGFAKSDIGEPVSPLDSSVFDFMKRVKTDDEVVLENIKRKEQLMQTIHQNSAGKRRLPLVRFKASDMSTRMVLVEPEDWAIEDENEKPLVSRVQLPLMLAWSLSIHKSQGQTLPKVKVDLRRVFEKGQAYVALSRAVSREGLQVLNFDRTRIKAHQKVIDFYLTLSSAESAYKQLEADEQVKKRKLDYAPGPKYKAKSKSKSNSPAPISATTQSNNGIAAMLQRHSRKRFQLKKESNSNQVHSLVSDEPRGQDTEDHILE
Nature of the series: BLI.

Usually Kd stands for the concentration at which binding is half-saturated. The low end stands for a tighter complex, the high end for a looser complex.

B1: T1 45-nt ssDNA (ssDNA)
DNA: TTTTTTTTTTTTTTTTTTTTTTTTTGTGTCACTCACATAGCGTTC
Turning to B1, the values for the Kd in series [1] and in series [2] were 19.1 ± 5.1 nM and 14.1 ± 1.5 nM, respectively.
